Results on two molecules are retold here after patent US20240182596A1 (TUBULIS, published 2024).

Test [1] deals with T1, recombinant human FcRn (FcγRn-SmBiT, Lumit assay) (human, UniProt P55899 24-297; P61769 21-119).
T1 construct: Kit reagent (Promega); not shown: SmBiT label of the kit
Kind of test: Lumit FcRn Binding Immunoassay (Promega), competition with Tracer-LgBiT for FcRn-SmBiT, n=1.

In test [2] the target is T2, recombinant hexameric C1q complement protein (human) (human, UniProt P02745 23-245; P02746 28-253; P02747 29-245).
T2 construct: also called complement factor C1q
Kind of test: HTRF Human C1q Binding Kit (Cisbio), HTRF ratio at 70 nM antibody with the diluent-only background subtracted.

Test [3] has as its target T3, FcγRIIIa (CD16) (V158) (Homo sapiens, UniProt P08637).
T3 construct: m21 joins both polymorphic variants; also called V158 variant of m21
Kind of test: Lumit FcγRIIIa (V158) Binding Immunoassay (Promega), left panel FcγRIIIa (CD16) (V158), competition with Tracer-LgBiT, n=1.

The target in test [4] is T4, recombinant human FcγRI (FcγR-SmBiT, Lumit assay) (human, UniProt P12314 16-292).
T4 construct: Kit reagent (Promega); also called FcγRI (CD64); not shown: SmBiT label of the kit
Kind of test: Lumit FcγRI Binding Immunoassay (Promega), competition with Tracer-LgBiT for FcγRI-SmBiT, n=1.

The target in test [5] is T5, FcγRIIa (CD32) (H131) (Fused to the SmBiT luciferase fragment (Promega Lumit reagent), not carried in the letters).
T5 construct: m20 joins both polymorphic variants; also called H131 variant of m20; not shown: SmBiT tag (and any linker or purification tag) of Promega's FcγR-SmBiT fusion
T5 chain: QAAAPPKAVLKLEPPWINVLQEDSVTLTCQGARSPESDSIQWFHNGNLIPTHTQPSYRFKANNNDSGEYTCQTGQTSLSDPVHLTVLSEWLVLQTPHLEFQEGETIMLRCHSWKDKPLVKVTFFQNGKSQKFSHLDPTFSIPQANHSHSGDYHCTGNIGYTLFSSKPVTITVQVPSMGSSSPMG
Kind of test: Lumit FcγRIIa (H131) Binding Immunoassay (Promega), left panel FcγRIIa (CD32) (H131), competition with Tracer-LgBiT, n=1.

For test [6], the target named is T6, human NaPi2b on NaPi2b-positive cell lines OVCAR-3 and HCC-78 (human, UniProt O95436 1-690).
T6 construct: Endogenous protein
T6 sequence: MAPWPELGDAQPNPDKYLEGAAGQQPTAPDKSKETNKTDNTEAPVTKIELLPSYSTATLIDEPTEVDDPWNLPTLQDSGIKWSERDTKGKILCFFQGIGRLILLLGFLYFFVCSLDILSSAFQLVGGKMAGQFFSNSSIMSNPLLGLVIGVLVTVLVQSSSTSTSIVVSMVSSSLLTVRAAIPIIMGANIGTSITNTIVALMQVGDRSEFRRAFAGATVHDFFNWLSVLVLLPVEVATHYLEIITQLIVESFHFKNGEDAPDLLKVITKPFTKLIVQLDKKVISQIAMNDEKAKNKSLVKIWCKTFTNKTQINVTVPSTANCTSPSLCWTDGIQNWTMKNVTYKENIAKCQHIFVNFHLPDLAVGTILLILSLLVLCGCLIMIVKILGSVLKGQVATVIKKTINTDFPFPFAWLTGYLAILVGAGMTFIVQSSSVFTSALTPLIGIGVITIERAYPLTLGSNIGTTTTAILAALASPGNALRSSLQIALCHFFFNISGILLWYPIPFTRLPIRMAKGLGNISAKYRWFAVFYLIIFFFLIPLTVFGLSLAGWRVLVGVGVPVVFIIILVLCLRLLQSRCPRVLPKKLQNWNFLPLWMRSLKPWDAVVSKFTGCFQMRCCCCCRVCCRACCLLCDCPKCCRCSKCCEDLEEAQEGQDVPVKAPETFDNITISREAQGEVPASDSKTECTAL
Kind of test: flow cytometry on OVCAR-3 cells; table column Binding KD (nmol/L), FACS (OVCAR-3).

Test [7] addresses T7, human Napi2b-mCherry on HEK293 cells (human, UniProt O95436 1-690).
T7 construct: also called Napi2b (SLC34A2); HEK293 cells overexpressing Napi2b
T7 sequence: T6 sequence
Kind of test: flow cytometry on HEK293 cells stably expressing human full-length NaPi2b-mCherry, Alexa-dye anti-human IgG H+L secondary antibody, MFI ratio, one-site specific binding fit; the Kd table prints no unit, the concentration axis is in nM; second experiment on human cells, run beside the rat cells of FIG. 3D.

Test [8] addresses T7, human Napi2b-mCherry on HEK293 cells. Kind of test: flow cytometry on HEK293 cells stably expressing human full-length NaPi2b-mCherry, Alexa-dye anti-human IgG H+L secondary antibody, MFI ratio, one-site specific binding fit; the Kd table prints no unit, the concentration axis is in nM.
Test [9] concerns the target T8, purified recombinant human Napi2b antigen consisting of Napi2b-extracellular-loop2 expressed as … (human, UniProt O95436 234-362, limits assumed).
T8 construct: Expressed in Expi-HEK293 cells; also called immobilized human NaPi2B; not shown: Fc part; 6-His tag
T8 sequence: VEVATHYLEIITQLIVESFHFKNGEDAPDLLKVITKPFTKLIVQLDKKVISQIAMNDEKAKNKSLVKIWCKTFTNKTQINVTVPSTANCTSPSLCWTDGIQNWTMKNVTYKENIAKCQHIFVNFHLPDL
Kind of test: ELISA on immobilized recombinant human Napi2b extracellular loop 2-Fc-6-His, HRP anti-human kappa detection. For orientation: An ELISA detects its analyte on a solid surface through an enzyme-linked reagent.

The target in test [10] is T8, purified recombinant human Napi2b …. Kind of test: ELISA on the isolated immobilized protein; table column Binding KD (nmol/L), ELISA.
For test [11], the target named is T9, HEK293 cyno-NaPi2B-mCherry (Macaca fascicularis, UniProt A0A2K5UHY1).
T9 construct: full-length mCherry fusion stably expressed on HEK293 cells; also called cynomolgus full-length NaPi2b-mCherry on HEK293 cells
T9 sequence (target on cells): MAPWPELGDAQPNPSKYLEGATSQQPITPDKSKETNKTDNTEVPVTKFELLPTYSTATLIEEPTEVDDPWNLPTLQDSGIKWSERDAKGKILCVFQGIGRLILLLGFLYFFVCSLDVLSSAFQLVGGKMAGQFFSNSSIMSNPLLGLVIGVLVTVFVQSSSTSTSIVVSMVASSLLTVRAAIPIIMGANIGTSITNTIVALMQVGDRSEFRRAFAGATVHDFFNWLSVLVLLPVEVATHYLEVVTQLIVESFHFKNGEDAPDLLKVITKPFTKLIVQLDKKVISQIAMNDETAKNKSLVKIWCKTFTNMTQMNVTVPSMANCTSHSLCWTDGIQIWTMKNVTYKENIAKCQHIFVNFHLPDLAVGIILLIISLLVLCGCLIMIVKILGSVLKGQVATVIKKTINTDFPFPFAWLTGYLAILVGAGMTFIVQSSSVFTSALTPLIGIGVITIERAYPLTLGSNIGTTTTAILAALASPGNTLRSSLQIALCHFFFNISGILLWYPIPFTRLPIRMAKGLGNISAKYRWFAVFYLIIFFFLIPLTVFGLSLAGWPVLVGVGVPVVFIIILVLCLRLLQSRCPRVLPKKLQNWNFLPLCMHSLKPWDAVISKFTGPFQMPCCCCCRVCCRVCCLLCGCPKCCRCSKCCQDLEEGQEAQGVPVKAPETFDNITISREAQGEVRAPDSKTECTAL
Kind of test: flow cytometry on HEK293 cells stably expressing cynomolgus full-length NaPi2b-mCherry, Alexa-dye anti-human IgG H+L secondary antibody, MFI ratio, one-site specific binding fit; the Kd table prints no unit, the concentration axis is in nM. (In general: In flow cytometry, cells or beads pass a laser one at a time.)

In test [12] the target is T10, HEK293 rat-NaPi2B-mCherry (Rattus norvegicus, UniProt Q9JJ09).
T10 construct: full-length mCherry fusion stably expressed on HEK293 cells; also called rat full-length NaPi2b-mCherry on HEK293 cells
T10 sequence (target on cells, looked up): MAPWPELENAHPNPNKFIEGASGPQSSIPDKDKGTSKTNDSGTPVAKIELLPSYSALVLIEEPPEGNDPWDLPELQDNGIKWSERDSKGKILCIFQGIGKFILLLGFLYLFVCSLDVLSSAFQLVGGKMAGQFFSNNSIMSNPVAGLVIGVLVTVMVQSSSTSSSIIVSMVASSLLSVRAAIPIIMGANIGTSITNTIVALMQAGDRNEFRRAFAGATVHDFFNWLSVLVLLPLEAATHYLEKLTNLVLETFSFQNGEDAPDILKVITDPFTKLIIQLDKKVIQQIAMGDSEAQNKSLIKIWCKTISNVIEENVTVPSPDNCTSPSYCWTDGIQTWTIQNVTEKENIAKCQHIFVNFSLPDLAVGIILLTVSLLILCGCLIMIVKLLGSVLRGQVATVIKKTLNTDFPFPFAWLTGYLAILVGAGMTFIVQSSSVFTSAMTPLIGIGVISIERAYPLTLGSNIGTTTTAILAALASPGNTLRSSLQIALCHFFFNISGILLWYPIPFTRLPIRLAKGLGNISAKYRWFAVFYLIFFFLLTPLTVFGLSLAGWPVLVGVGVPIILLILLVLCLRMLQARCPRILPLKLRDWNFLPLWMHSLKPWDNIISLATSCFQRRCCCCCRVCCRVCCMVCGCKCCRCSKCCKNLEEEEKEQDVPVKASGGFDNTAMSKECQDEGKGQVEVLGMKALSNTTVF
Kind of test: flow cytometry on HEK293 cells stably expressing rat full-length NaPi2b-mCherry, Alexa-dye anti-human IgG H+L secondary antibody, MFI ratio, one-site specific binding fit; the Kd table prints no unit, the concentration axis is in nM.

The target in test [13] is T8, purified recombinant human Napi2b …. Kind of test: ELISA, coated Napi2b-extracellular-loop2-Fc-6-His, apparent KD from one-site fit.

B1: Fc-wildtype AV25 (AV25 HC-wt) (antibody)
heavy: not shown
light: DIQMTQSPSSLSASVGDRVTITCSASQDIGNFLNWYQQKPGKTVKVLIYYASSLYSGVPSRFSGSGSGTDYTLTISSLQPEDFATYYCQQYSKLPLTFGQGTKLELKRTVAAPSVFIFPPSDEQLKSGTASVVCLLNNFYPREAKVQWKVDNALQSGNSQESVTEQDSKDSTYSLSSTLTLSKADYEKHKVYACEVTHQGLSSPVTKSFNRGEC
notes: IgG1 with wild-type Fc (L234, L235); also called AV25-wt
For the molecule B1, the “IC50 (read off the curve)” value in [1] is approximately 3 µg/mL; in test [3] it was approximately 2 µg/mL; in test [4], approximately 0.02 µg/mL; in test [5], approximately 1 µg/mL. Further, in test [2], the binding result was “binds”.

B2: parental mAb (parental anti-NaPi2b antibody) (antibody, human IgG1, kappa, L234A L235A, V domains shown)
VH: EVQLVQSGAEVVKPGASVKMSCKASGYTFTGYNIHWVKQAPGQGLEWIGAIYPGNGDTSYKQKFRGRATLTADTSTSTVYMELSSLRSEDSAVYYCARGETARATFAYWGQGTLVTVSS
VL: DIQMTQSPSSLSASVGDRVTITCSASQDIGNFLNWYQQKPGKTVKVLIYYTSSLYSGVPSRFSGSGSGTDYTLTISSLQPEDFATYYCQQYSKLPLTFGQGTKLELKR
notes: also called parental antibody
As for B2, the Kd in test [6] was 10.8 nM; in test [7] it was 2.85 nM; in test [8], 5.43 nM; in [10], 0.147 nM; in test [11], 4.48 nM; in [12], 6.88 nM. In addition, the Kd in test [13] stood at 0.0221 µg/mL. Further, in test [9], the concentration giving a half-maximal response (EC50 (read off the curve)) (usually the concentration at which the effect is half-maximal) is approximately 0.02 µg/mL.
